Read-outs that look alike come from different tables or passages of the source.
Assays:
[1] = biological target: T1, recombinant canine β NGF (canine, UniProt Q29074 110-229 (pig entry)); assay: SPR (Biacore T100), antibody captured on goat anti-canine IgG, canine NGF injected; Average
T1 construct: also called canine NGF
T1 chain: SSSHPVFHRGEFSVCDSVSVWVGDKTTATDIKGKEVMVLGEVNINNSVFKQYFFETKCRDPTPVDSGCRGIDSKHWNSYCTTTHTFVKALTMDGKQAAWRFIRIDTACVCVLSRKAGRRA
Procedure: (§1) Purified mouse/canine chimeric antibodies and caninized antibodies were analyzed for affinity to canine NGF using a Biacore T100 instrument. Goat anti Canine IgG (Southern Biotech) was immobilized at 5000-10000 RU on a CM5 chip using an amine coupling procedure according to the manufacturer's instructions (Biacore). […] The association rate was monitored for 5 min and the dissociation rate was monitored for 10-20 min. The chip surface was regenerated using 50-75 ul 10 mM glycine pH 1.5 at a flow rate of 50-100 ul/min. Data was analyzed using Biaevaluation T100 software version 2.0.2, software, GE Healthcare Life Sciences (Piscataway, N.J.). Overall affinity parameters established for mouse/canine chimeric antibodies is summarized in Table 22 and for caninized antibodies in Table 23. […] The overall KDs of the mouse/canine anti-NGF mAbs range from about 1300 pM to 1.6 pM. […] The overall KDs of the caninized anti-NGF mAbs range from about 42 pM to 1.2 pM.

[2] = biological target: T1, recombinant canine β NGF; assay: SPR (Biacore T100), antibody captured on goat anti-canine IgG, canine NGF injected; Expt 1; Expt 1
Procedure: as §1

[3] = biological target: T1, recombinant canine β NGF; assay: cell-based or functional assay
[4] = biological target: T1, recombinant canine β NGF; assay: SPR (Biacore T100), antibody captured on goat anti-canine IgG, canine NGF injected; Expt 2
Procedure: as §1

[5] = biological target: T1, recombinant canine β NGF; assay: SPR (Biacore T100), antibody captured on goat anti-canine IgG, canine NGF injected; Expt 1
Procedure: as §1

[6] = biological target: T1, recombinant canine β NGF; assay: cell-based or functional assay
[7] = biological target: T1, recombinant canine β NGF; assay: direct ELISA, canine NGF coated at 1 µg/ml, mAb at 0.4 µg/ml
[8] = biological target: T1, recombinant canine β NGF; assay: SPR (Biacore), mAb captured on goat anti-mouse IgG Fc, canine NGF injected; Average
[9] = biological target: T1, recombinant canine β NGF; assay: SPR (Biacore), mAb captured on goat anti-mouse IgG Fc, canine NGF injected; Average; Average
Procedure: (§2) A biomolecular protein interaction analysis was used to evaluate the binding kinetics of the interaction between the purified anti-NGF hybridoma antibodies and recombinant canine β NGF. The antibodies were captured using a goat anti-mouse IgG FC (10000 RU) surface which was directly immobilized to a CM5 chip using an amine coupling procedure according to the manufacturer's instructions (Biacore). A sample size of 5 μl of antibody at a concentration of 1 μg/ml was captured at 10 μl minute. Recombinant canine NGF was used as the antigen. Canine NGF was injected at 75 μl/min (concentration range: 5-0.039 nM) for mouse antibodies. The association rate was monitored for 3.3 minutes and the dissociation rate was monitored for 10 minutes. Aliquots of canine NGF were also simultaneously injected over a reference reaction CM surface to record any nonspecific binding background. The instrument sensitivity for on-rate is I×IO⁷, such that any on-rate that is faster than I×IO⁷ may not be accurately measured; the instrument sensitivity for off-rate is […], such that any off-rate that is slower than 1×10⁻⁶ may not be accurately measured. Therefore, an on-rate that is faster than 1×10⁷ is recorded as >1×10⁷ and an off-rate that is slower than 1×10⁻⁶ is recorded as <1×10⁻⁶.

[10] = biological target: T1, recombinant canine β NGF; assay: SPR (Biacore), mAb captured on goat anti-mouse IgG Fc, canine NGF injected; Expt 1
[11] = biological target: T1, recombinant canine β NGF; assay: direct ELISA, canine NGF coated at 1 µg/ml, mAb at 2 µg/ml
[12] = biological target: T1, recombinant canine β NGF; assay: cell-based or functional assay
[13] = biological target: T1, recombinant canine β NGF; assay: SPR (Biacore), mAb captured on goat anti-mouse IgG Fc, canine NGF injected; Expt 1; Expt 1
Procedure: as §2

[14] = biological target: T1, recombinant canine β NGF; assay: direct ELISA, canine NGF coated at 1 µg/ml, mAb at 10 µg/ml
[15] = biological target: T1, recombinant canine β NGF; assay: SPR (Biacore), mAb captured on goat anti-mouse IgG Fc, canine NGF injected; Expt 2

B1: 82.3 Canine IgG1/k (antibody, V domains shown)
VH: EVQLQESGPGLVKPSQTLSLTCTVSGFSLTGYNINWVRQRPDRGLEWLGMIWGYGDTDYNSALKSRLSISKDNTKSQVFLQLTSTTTEDTAVYYCARDHYGGNDWYFDVWGQGTLVTVSS
VL: DIQMTQTPLSLSASPGESASITCRASQDITNYLNWYRQKPGQSVKLLIYYTSRLHSGVPSRFSGSGSGTDYSLRISRVEDEDAGLYFCQQGKTLPRTFGQGTKLEIKR
notes: The variable/constant junction was not checked; also called PR-1313519; PR-13113519
[1]
  Kd: 2 pM
  koff: 1.7e-05 s⁻¹
  kon: 8.4e+06 M⁻¹ s⁻¹
[2]
  koff: 2e-05 s⁻¹
[3]
  IC50, canine NGF-induced TF-1 cell proliferation (70 pM canine NGF): 17 pM
[4]
  Kd: 1.6 pM
  koff: 1.3e-05 s⁻¹
  kon: 8.5e+06 M⁻¹ s⁻¹
[5]
  Kd: 2.4 pM
  kon: 8.2e+06 M⁻¹ s⁻¹

B2: PR-1254982 (antibody, mouse IgG1, V domains shown)
VH: QVQLKESGPGLVAPSQSLSITCTVSGFSLTGYNINWVRQPPGKGLEWLGMIWGYGDTDYNSALKSRLSISKDNSKSQVFLKMNSLQTDDTARYYCARDHYGGNDWYFDVWGTGTTVTVSS
VL: DIQMTQTTSSLSASLGDRVTITCRASQDITNYLNWYQQKPDGTVKLLIYYTSRLHSGVPSRFSGSGSGTDYSLTISNLDQEDIATYFCQQGKTLPRTFGGGTKLEIKR
notes: also called 3F7; ML130-3F7.4A8
[6]
  IC50, canine NGF-induced TF-1 cell proliferation (70 pM canine NGF): 25 pM
[7]
  absorbance at 450 nm: 0.095 A450
[8]
  Kd: < 0.1 pM
  kon: > 1e+07 M⁻¹ s⁻¹
[9]
  koff: < 1e-06 s⁻¹
[10]
  Kd: < 0.1 pM
  kon: > 1e+07 M⁻¹ s⁻¹
[11]
  absorbance at 450 nm: 0.142 A450
[12]
  PathHunter IC50 (441 pM canine NGF): 0.15 nM
  SureFire pERK IC50 (128 pM canine β NGF): 5.8 pM
[13]
  koff: < 1e-06 s⁻¹
[14]
  absorbance at 450 nm: 0.208 A450
[15]
  Kd: < 0.1 pM
  koff: < 1e-06 s⁻¹
  kon: > 1e+07 M⁻¹ s⁻¹
